Legend:
[1] = biological target: collagen receptor on human platelets (human)
[2] = biological target: thrombin
[3] = biological target: collagen receptor on human platelets (human); remark: listed apart in the source
[4] = biological target: collagen receptor (VL A 2) on MTLn3 cells (rat mammary tumor cells) (rat)
[5] = biological target: collagen receptor (VL A 2) on MTLn3 cells (rat mammary tumor cells) (rat); remark: listed apart in the source
[6] = biological target: collagen receptor on human platelets (human); remark: listed apart in the source
[7] = biological target: collagen receptor on human platelets (human); remark: listed apart in the source

collagen-induced platelet aggregation inhibitor isolated from saliva of Triatoma pallidipennis
adherent platelets per mm^2 on collagen type I (50 µl of "Superose"-pool at 0.5 mg protein/ml; 13500 without inhibitor) (adherent platelets per mm^2) [1]: 6500
maximal aggregation of filtrated platelets induced with thrombin (0.06 U/ml), with 200 µl "Superose"-pool (control 75%) (% maximal aggregation) [2]: 75
released ATP, % of total ATP content, of collagen-treated platelets (30 µl = 10 µg protein of "Superose"-pool; 49% without inhibitor) (% of total ATP content) [3]: 2
cell attachment (cpm) of 51Cr-labelled MTLn3 cells to collagen type III (10 µl of "Superose"-pool; 2215 cpm without inhibitor) [4]: 1080 cpm
IC50 of adhesion-inhibition of metastatic tumor cells to collagen (highly purified protein) [5]: 100 nM
inhibition of collagen-induced aggregation of human platelets (platelet-rich plasma, aggregometer; "Superose"-pool) (% inhibition of aggregation) [6]: 70
IC50 of inhibition of collagen-induced platelet aggregation (highly purified protein) [7]: 50 nM
IC50 of inhibition of collagen-induced platelet aggregation (partially purified "Superose"-pool) [7]: 2.5 µg per ml

Reference: patent US5756454
